This is an account of results in paper doi:10.1101/2021.03.11.435010 (bioRxiv, 2021).

Sequences and labels used below:
B1: MED31 (natural protein)
chain: MAAAVAMETDDAGNRLRFQLELEFVQCLANPNYLNFLAQRGYFKDKAFVNYLKYLLYWKDPEYAKYLKYPQCLHMLELLQYEHFRKELVNAQCAKFIDEQQILHWQHYSRKRMRLQQALAEQQQQNNTSGK
B2: MED18 (natural protein)
chain: MEAPPVTMMPVTGGTINMMEYLLQGSVLDHSLESLIHRLRGLCDNMEPETFLDHEMVFLLKGQQASPFVLRARRSMDRAGAPWHLRYLGQPEMGDKNRHALVRNCVDIATSENLTDFLMEMGFRMDHEFVAKGHLFRKGIMKIMVYKIFRILVPGNTDSTEALSLSYLVELSVVAPAGQDMVSDDMKNFAEQLKPLVHLEKIDPKRLM
B3: MED6 (natural protein)
chain: MAAVDIRDNLLGISWVDSSWIPILNSGSVLDYFSERSNPFYDRTCNNEVVKMQRLTLEHLNQMVGIEYILLHAQEPILFIIRKQQRQSPAQVIPLADYYIIAGVIYQAPDLGSVINSRVLTAVHGIQSAFDEAMSYCRYHPSKGYWWHFKDHEEQDKVRPKAKRKEEPSSIFQRQRVDALLLDLRQKFPPKFVQLKPGEKPVPVDQTKKEAEPIPETVKPEEKETTKNVQQTVSAKGPPEKRMRLQ
B4: MED28 (natural protein)
chain: MAAPLGGMFSGQPPGPPQAPPGLPGQASLLQAAPGAPRPSSSTLVDELESSFEACFASLVSQDYVNGTDQEEIRTGVDQCIQKFLDIARQTECFFLQKRLQLSVQKPEQVIKEDVSELRNELQRKDALVQKHLTKLRHWQQVLEDINVQHKKPADIPQGSLAYLEQASANIPAPLKPT
B5: MED27 (natural protein)
chain: MADVINVSVNLEAFSQAISAIQALRSSVSRVFDCLKDGMRNKETLEGREKAFIAHFQDNLHSVNRDLNELERLSNLVGKPSENHPLHNSGLLSLDPVQDKTPLYSQLLQAYKWSNKLQYHAGLASGLLNQQSLKRSANQMGVSAKRRPKAQPTTLVLPPQYVDDVISRIDRMFPEMSIHLSRPNGTSAMLLVTLGKVLKVIVVMRSLFIDRTIVKGYNENVYTEDGKLDIWSKSNYQVFQKVTDHATTALLHYQLPQMPDVVVRSFMTWLRSYIKLFQAPCQRCGKFLQDGLPPTWRDFRTLEAFHDTCRQ
B6: MED11 (natural protein)
chain: MATYSLANERLRALEDIEREIGAILQNAGTVILELSKEKTNERLLDRQAAAFTASVQHVEAELSAQIRYLTQVATGQPHEGSSYSSRKDCQMALKRVDYARLKLSDVARTCEQMLEN
B7: MED20 (natural protein)
chain: MGVTCVSQMPVAEGKSVQQTVELLTRKLEMLGAEKQGTFCVDCETYHTAASTLGSQGQTGKLMYVMHNSEYPLSCFALFENGPCLIADTNFDVLMVKLKGFFQSAKASKIETRGTRYQYCDFLVKVGTVTMGPSARGISVEVEYGPCVVASDCWSLLLEFLQSFLGSHTPGAPAVFGNRHDAVYGPADTMVQYMELFNKIRKQQQVPVAGIR

Holding throughout (test): cryo-EM structure
Assay [1] has as its target MED14 (human, UniProt O60244 1-1454).
Assay [2] concerns the target T1, MED7 (human, UniProt O43513 1-233).
T1 sequence: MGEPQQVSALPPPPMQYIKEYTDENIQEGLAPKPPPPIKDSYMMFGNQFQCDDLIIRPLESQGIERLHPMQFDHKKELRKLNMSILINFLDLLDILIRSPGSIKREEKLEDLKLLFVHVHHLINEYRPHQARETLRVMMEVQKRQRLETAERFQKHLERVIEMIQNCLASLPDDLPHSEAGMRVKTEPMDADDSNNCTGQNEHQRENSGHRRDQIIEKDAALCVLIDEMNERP

Assay [3] deals with T2, MED4 (human, UniProt Q9NPJ6 1-270).
T2 sequence: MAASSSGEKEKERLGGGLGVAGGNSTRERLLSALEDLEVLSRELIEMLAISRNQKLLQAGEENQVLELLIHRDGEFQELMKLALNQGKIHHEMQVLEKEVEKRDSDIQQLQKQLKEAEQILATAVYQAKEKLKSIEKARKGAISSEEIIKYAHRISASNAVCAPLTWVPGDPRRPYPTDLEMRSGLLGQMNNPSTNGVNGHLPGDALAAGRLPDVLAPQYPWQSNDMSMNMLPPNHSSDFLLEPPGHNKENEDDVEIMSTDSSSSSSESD

The target in assay [4] is B7.
In assay [5] the target is T3, TFIIB (human, UniProt Q00403 1-316).
T3 sequence: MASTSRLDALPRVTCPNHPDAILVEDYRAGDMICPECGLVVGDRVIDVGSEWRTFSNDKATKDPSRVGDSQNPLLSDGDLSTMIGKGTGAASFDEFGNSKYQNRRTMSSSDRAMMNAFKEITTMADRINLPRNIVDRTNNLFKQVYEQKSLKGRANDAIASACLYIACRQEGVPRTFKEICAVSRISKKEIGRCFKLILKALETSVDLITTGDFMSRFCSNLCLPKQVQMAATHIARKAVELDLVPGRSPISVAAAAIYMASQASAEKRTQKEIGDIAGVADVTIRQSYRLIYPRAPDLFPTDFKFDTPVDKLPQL

The target in assay [6] is T4, MED8 (human, UniProt Q96G25 1-268).
T4 sequence: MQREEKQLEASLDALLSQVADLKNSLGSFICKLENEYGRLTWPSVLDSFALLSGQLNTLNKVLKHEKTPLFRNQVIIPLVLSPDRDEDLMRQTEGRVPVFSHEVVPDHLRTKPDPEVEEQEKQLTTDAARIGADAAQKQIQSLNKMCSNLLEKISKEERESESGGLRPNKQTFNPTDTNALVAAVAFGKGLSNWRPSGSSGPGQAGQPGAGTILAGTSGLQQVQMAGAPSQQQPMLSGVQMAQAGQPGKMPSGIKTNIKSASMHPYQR

Assay [7] addresses T5, MED30 (human, UniProt Q96HR3 1-178).
T5 sequence: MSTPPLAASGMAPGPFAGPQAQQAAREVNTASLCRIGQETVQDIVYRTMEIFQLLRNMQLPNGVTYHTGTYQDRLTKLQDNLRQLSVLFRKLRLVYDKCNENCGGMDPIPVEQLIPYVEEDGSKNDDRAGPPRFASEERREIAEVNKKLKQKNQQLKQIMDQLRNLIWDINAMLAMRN

The target of assay [8] is T6, MED17 (human, UniProt Q9NVC6 1-651).
T6 sequence: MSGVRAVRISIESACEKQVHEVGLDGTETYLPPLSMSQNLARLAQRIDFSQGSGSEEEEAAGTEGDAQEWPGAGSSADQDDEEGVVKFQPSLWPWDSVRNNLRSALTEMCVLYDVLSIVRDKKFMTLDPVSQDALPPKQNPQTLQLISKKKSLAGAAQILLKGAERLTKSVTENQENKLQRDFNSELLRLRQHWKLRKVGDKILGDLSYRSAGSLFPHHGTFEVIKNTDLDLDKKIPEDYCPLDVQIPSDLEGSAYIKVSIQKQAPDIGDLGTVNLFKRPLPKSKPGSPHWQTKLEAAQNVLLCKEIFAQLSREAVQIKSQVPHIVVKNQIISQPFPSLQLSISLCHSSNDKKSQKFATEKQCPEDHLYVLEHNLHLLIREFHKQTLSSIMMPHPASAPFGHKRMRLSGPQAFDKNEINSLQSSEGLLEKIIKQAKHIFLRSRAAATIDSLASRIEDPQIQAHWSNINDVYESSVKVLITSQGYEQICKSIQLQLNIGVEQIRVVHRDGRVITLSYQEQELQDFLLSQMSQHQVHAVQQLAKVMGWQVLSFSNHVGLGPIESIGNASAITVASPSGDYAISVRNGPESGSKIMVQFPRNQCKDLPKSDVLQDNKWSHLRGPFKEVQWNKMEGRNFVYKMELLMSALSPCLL

Assay [9] concerns the target B4.
Assay [10] addresses B5.

MED14, sequence (O60244 whole entry): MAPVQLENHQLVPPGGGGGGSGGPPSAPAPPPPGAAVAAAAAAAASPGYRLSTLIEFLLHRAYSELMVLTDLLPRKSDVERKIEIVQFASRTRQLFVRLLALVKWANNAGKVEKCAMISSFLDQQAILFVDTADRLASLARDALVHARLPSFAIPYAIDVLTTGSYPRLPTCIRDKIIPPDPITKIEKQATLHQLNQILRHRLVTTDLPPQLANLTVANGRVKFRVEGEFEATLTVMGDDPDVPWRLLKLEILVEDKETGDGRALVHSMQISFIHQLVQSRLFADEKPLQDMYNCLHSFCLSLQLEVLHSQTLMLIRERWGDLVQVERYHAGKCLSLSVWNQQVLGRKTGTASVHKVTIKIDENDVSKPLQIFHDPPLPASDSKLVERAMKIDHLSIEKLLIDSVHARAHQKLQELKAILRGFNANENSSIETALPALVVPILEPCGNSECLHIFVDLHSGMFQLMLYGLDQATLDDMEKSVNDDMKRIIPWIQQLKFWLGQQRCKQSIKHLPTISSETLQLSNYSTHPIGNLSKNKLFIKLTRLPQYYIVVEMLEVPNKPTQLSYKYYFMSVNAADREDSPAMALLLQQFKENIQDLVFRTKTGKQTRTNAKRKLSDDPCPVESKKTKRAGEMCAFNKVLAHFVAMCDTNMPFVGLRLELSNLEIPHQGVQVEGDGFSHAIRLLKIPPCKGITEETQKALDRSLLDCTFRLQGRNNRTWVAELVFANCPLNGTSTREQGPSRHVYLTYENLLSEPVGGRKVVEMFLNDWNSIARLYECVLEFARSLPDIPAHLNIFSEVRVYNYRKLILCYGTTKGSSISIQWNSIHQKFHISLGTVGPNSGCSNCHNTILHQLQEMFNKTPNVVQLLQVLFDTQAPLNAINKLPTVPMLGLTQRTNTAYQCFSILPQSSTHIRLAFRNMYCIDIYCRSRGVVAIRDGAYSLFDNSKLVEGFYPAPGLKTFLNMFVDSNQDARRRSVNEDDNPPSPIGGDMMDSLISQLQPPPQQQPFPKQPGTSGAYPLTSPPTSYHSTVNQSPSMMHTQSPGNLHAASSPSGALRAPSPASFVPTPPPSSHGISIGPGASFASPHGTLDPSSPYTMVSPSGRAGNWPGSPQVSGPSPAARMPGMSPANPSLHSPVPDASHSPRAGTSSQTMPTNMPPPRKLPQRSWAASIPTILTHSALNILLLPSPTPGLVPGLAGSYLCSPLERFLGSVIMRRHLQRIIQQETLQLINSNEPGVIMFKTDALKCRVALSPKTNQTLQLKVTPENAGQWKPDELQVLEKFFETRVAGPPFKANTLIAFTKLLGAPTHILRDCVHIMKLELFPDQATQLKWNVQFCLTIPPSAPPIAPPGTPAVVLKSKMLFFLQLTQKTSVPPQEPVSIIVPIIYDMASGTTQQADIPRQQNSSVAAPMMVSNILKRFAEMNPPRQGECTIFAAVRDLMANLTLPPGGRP

On to B1, for which the binding result in assay [1], in assay [2] and in assay [3] was “binds” in each case.

Regarding B2, the binding result in assay [4], in assay [5] and in [6] was “binds” throughout.

Consider B3, for which the binding result in assay [6] is “binds”.

As to B4, the binding result in assay [7] was “binds”.

As for B5, the binding result in assay [8] and in [1] was “binds” in each case.

In the case of B6, the binding result in [9] and in assay [7] was “binds” each time.

Take B7: the binding result in [6] and in assay [10] was “binds” each time.
